{
  "source": "the nanobody polyreactivity screen of Harvey et al. (2022)",
  "data": [
    {"experiment": "yeast display, Sf9 membrane polyspecificity reagent, FACS + sequencing; frameworks hold sequencing errors", "method_in_brief": "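Using colony PCR, genes from sorted yeast display clones were amplified, then sequenced on MiSeq at 2 × 250 and filtered by CDR length. The clones had been stained with 10% biotinylated, detergent-solubilized Sf9 membrane reagent for 1 hour at 4 °C and sorted by FACS into low and high (top ~1%) gates on anti-HA and streptavidin fluorescence. Polyreactivity labels come from the gate of origin.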", "values": [
      {"sequence": "QVQLVESGGGLVQAGGSLRLSCAASGSIFQRNAMGWYRQAPGKERELVAAITYSGGGTYYADSVKGRFTISRDNAKNTVYLQMNSLKPEDTAVYYCAADYKSKYSGYIYDYWGQGTQVTVSS", "polyreactivity (PSR sort gate)": "low polyreactivity"},
      {"sequence": "QVQLVESGGGLVQAGGSLRLSCAASGSIFQRYAMGWYRQAPGKEREFVAAISGRGGSTYYADSVKGRFTISRDNAKNTVYLQMNSLKPEDTAVYYCAADSSRFYGRPRYYYWGQGTQVTVSS", "polyreactivity (PSR sort gate)": "high polyreactivity"},
      {"sequence": "QVQLVESGGGLVQAGGSLRLSCAASGSIFQRYTMGWYRQAPGKERELVARISGRGGSTYYADSVKGRFTISRDNAKNTVYLQMKSLKPEDTAVYYCAADTGRYLDSNYWGQGTQVTVSS", "polyreactivity (PSR sort gate)": "high polyreactivity"},
      {"sequence": "QVQLVESGGGLVQAGGSLRLSCAASGSIFQSYTMGGYRQAPGKERELVAAINSGGRTNYADSVKGRFTITRDNAKYTVYLQMNSLKPEDTAVYYCAKRLSTRASFGEEDSWGQGTQVTVSS", "polyreactivity (PSR sort gate)": "low polyreactivity"},
      {"sequence": "QVQLVESGGGLVQAGGSLRLSCAASGSIFQVYAMGWYRQAPGKEREFVAAISYSGGGTYYADSVKGRFTISRDNAKNSVYLQMNSLKPEDTAVYYCAADVSGWEYDYWGQGTQVTVSS", "polyreactivity (PSR sort gate)": "low polyreactivity"},
      {"sequence": "QVQLVESGGGLVQAGGSLRLSCAASGSIFQVYAMGWYRQAPGKEREFVAAISYSGGGTYYADSVKGRFTISRDTAKNTVYLQMNSLKPEDSAVYYCAATEQYGRDSWSSYRIFPPYDDWGQGTQVTVSS", "polyreactivity (PSR sort gate)": "low polyreactivity"},
      {"sequence": "QVQLVESGGGLVQAGGSLRLSCAASGSIFQYNAMGWYRQAPGKERELVAAINGGGSTYYADSEKGRFTISRDNAKNTVYLQMNSLKPEDTAVYYCAADGGAYSYRGPGKFGIEDSWGQGTQVTVSS", "polyreactivity (PSR sort gate)": "low polyreactivity"},
      {"sequence": "QVQLVESGGGLVQAGGSLRLSCAASGSIFRAYAMGWYRQAPGKERELVAAISWGGGSTSYADSVKGRFTISRDNAKNTVYLQMNSLKPEDTAVYYCNKVSLSKRRDYYWGQGTQVTVSS", "polyreactivity (PSR sort gate)": "high polyreactivity"},
      {"sequence": "QVQLVESGGGLVQAGGSLRLSCAASGSIFRDNAMGWYRQAPGKERELVASIRSSGGRTYYADSVKGRFTISRDNAKNTVYLQMNSLKPEDTAVYYCARRWYPVTPYARMYYWGQGTQVTVSS", "polyreactivity (PSR sort gate)": "low polyreactivity"},
      {"sequence": "QVQLVESGGGLVQAGGSLRLSCAASGSIFRFNAMGWYRPAPGKERELVAAISDSGGRTYYADSVKGRFTISRDNAKNTVYLQMNSLKPEDTAVYYCNAYVHTQGGDYWGQGTQVTVSS", "polyreactivity (PSR sort gate)": "high polyreactivity"},
      {"sequence": "QVQLVESGGGLVQAGGSLRLSCAASGSIFRFNAMGWYRQAPGKERELVAAISDSGGRTYYADSVKGRFTISRDNAKNTVYLQMNSLKPEETAVYYCNAYVHSQGGDYWGQGTQVTVSS", "polyreactivity (PSR sort gate)": "high polyreactivity"},
      {"sequence": "QVQLVESGGGLVQAGGSLRLSCAASGSIFRFNAMGWYRQAPGKERELVATISRSGGSTYYADSVKGRFTISRDNAKNTVYLQMNSLKPEDTAVYYCAADAYPTWPEYDGLYFKYDYWGQGTQVTVSS", "polyreactivity (PSR sort gate)": "high polyreactivity"},
      {"sequence": "QVQLVESGGGLVQAGGSLRLSCAASGSIFRFYAMGWYIQAPGKERELVAGITWSGASTYYAVSVKGRFTISRDNAKNTVYLQMNSLKPEDTAVYYCAAKSLIVRYDSWGQGTQVTVSS", "polyreactivity (PSR sort gate)": "high polyreactivity"},
      {"sequence": "QVQLVESGGGLVQAGGSLRLSCAASGSIFRFYAMGWYRQAPGKERELVAGITWSGASTYYADSVKGRFTISRDNAKNTVYFQMNSLKPEDSAVYYCAAKSLIVRYDSWGQGTQVSVSS", "polyreactivity (PSR sort gate)": "high polyreactivity"},
      {"sequence": "QVQLVESGGGLVQAGGSLRLSCAASGSIFRGNAMGWYRQAPGKEMELVAAINKSGGSTYYADSVKGRFTISRDNAKNTVYLQMNSLKPEDTAVYYCAAVYKRLQPYGYWGQGTQVTVSS", "polyreactivity (PSR sort gate)": "high polyreactivity"},
      {"sequence": "QVQLVESGGGLVQAGGSLRLSCAASGSIFRGNAMGWYRQAPGKERELVAAISKSGGSTYYADSVKGRFTISRDHAKNTVYLQMNSLKPEDTAVYYCAARTTYLYGMYYWGQGTQVTVSS", "polyreactivity (PSR sort gate)": "low polyreactivity"},
      {"sequence": "QVQLVESGGGLVQAGGSLRLSCAASGSIFRGNAMGWYRQAPGKERELVARITWSGGRTYYADSVKGRFTISRDNAKNTVYLQLNSLKPEDTAVYYCAAQYYLYRRGYMWKYDYWGQGTQVTVSS", "polyreactivity (PSR sort gate)": "high polyreactivity"},
      {"sequence": "QVQLVESGGGLVQAGGSLRLSCAASGSIFRGNAMGWYRQATGKERELVAAITSRASSTYYADSVKGRFTLSRDNAKNTVYLQMNSLKPEDTAVYYCAAKWVRSYYTFDHWGQGTQVTVSS", "polyreactivity (PSR sort gate)": "high polyreactivity"},
      {"sequence": "QVQLVESGGGLVQAGGSLRLSCAASGSIFRGNVMGWYRQAPGKERELVAAISWSGGSTYYADSVKGRFTISRDNAKNTVYLQMNSLKPEDTAVYYCAVRVWGSARGMDYWGQGTQVTVSS", "polyreactivity (PSR sort gate)": "high polyreactivity"},
      {"sequence": "QVQLVESGGGLVQAGGSLRLSCAASGSIFRGYAMGWYIQAPGKERELVAAITSRGGSTYYADSVKGRFTISRDNAKNTVYLQMNSLKPEDTEVYYCNKRVYYPWGQGTQVTVSS", "polyreactivity (PSR sort gate)": "high polyreactivity"},
      {"sequence": "QVQLVESGGGLVQAGGSLRLSCAASGSIFRGYAMGWYRQAPGKERDLVAAITSGGSTNYADSVKGRFTISRDNAKNSVYLQMNSLKPEDTAVYYCAKDLALVAPLSDYWGQGTQVTVSS", "polyreactivity (PSR sort gate)": "low polyreactivity"},
      {"sequence": "QVQLVESGGGLVQAGGSLRLSCAASGSIFRGYAMGWYRQAPGKERELVAAITFSGGSTYADSVKGRFTISRDNAKNTVYFQMNSLKPEDTAVYDCAAKRTGHNWFTVYPYYSWGQGTQVTVSS", "polyreactivity (PSR sort gate)": "low polyreactivity"},
      {"sequence": "QVQLVESGGGLVQAGGSLRLSCAASGSIFRHYAMGWYRQAPGKERELVAAISAIGGSTYADSVKGRFTISRDNAKNTVYLQMNSLKPEDTAVYYCNARSYTSYVYHEAGEFDYWGQGTQVTVSS", "polyreactivity (PSR sort gate)": "low polyreactivity"},
      {"sequence": "QVQLVESGGGLVQAGGSLRLSCAASGSIFRINAMGWYRQAPGKERELVAAISWSGGSTYYADSVKGRFTISRDNAKNTVYLQMNSLKPEDTAVYYCAAVVSKSSFDYWGQGTQVTVSS", "polyreactivity (PSR sort gate)": "low polyreactivity"},
      {"sequence": "QVQLVESGGGLVQAGGSLRLSCAASGSIFRIYAMGWSRQAPGKERELVAAIDSSGGSTYYADSVKGRFTISRDNAKNTVYLQMNSLKPEDTAVYYCAADFGSKSTPYDYWGQGTQVTVSS", "polyreactivity (PSR sort gate)": "low polyreactivity"},
      {"sequence": "QVQLVESGGGLVQAGGSLRLSCAASGSIFRIYAMGWYRQAPGKERELVAGISKSGGSTYYADSVKGRFTISRDNAKNTVYLQMNSLKPEDTAVYYCNARRPSWGLDKYDYWGQGTQVTVSS", "polyreactivity (PSR sort gate)": "low polyreactivity"},
      {"sequence": "QVQLVESGGGLVQAGGSLRLSCAASGSIFRKYAMGWYRQAPGKERELVARISSGGRTYYADSVKGRFTISRDNAKNTVYLQMNSLKPEDTAVYFCAAAYYQRGRYSWGQGSQVTVSS", "polyreactivity (PSR sort gate)": "high polyreactivity"},
      {"sequence": "QVQLVESGGGLVQAGGSLRLSCAASGSIFRKYAMGWYRQAPGKERELVAVITTDGSTNYADSVKGRFTISRDNAKNTVYLQMNSLKPEDTAVYYCNAVRSSIGTDNDYWGQGTQVTVSS", "polyreactivity (PSR sort gate)": "low polyreactivity"},
      {"sequence": "QVQLVESGGGLVQAGGSLRLSCAASGSIFRLYAMGWYRPAPGKERELVAAISRRGGSTNYADSVKGRFTISRDNAKNTVNLQMNSLKPEDTAVYYCNAVSKRSRYDYWGQGTQVTVSS", "polyreactivity (PSR sort gate)": "high polyreactivity"},
      {"sequence": "QVQLVESGGGLVQAGGSLRLSCAASGSIFRLYAMGWYRQAPGKEREFVARIRWRGGSTNYADSVKGRFTISRDNAKNTVYLQMNSLKPEDTAVYYCAAKQGTVRAHTYVPWYDYWGQGTQVTVSS", "polyreactivity (PSR sort gate)": "high polyreactivity"},
      {"sequence": "QVQLVESGGGLVQAGGSLRLSCAASGSIFRLYAMGWYRQAPGKERELVATITSGGNTYADSVKGRFTISRDNAKNTVYLQMNSLKPEDTAVYYCATTVYAYSYGYEYWGQGTQVTVSS", "polyreactivity (PSR sort gate)": "high polyreactivity"},
      {"sequence": "QVQLVESGGGLVQAGGSLRLSCAASGSIFRNNAMGWYRQAPGKERELVASITRRGGSTYYADSVKGRFTISRDNAKNTVYLQMNSLKPEDTAVYYCAATTQHRYKLNYWGQGTQVTVSS", "polyreactivity (PSR sort gate)": "high polyreactivity"},
      {"sequence": "QVQLVESGGGLVQAGGSLRLSCAASGSIFRNYAMGWYRQAPGKERELVAAISRRGGSTYYADSVKGRFTISRDNAKNTVYLQMNSLKPEDTAVYYCKKRWSSKTVQYDYWGQGTQVTVSS", "polyreactivity (PSR sort gate)": "high polyreactivity"},
      {"sequence": "QVQLVESGGGLVQAGGSLRLSCAASGSIFRNYAMGWYRQAPGKERELVATISWNGGRTHYADSVKGRFTISRDNAKNTVYLQMNSLKPVDTAVYYCNKDAASFRHFYGYGYWGQGTQVTVSS", "polyreactivity (PSR sort gate)": "low polyreactivity"},
      {"sequence": "QVQLVESGGGLVQAGGSLRLSCAASGSIFRNYAMGWYRQAPGKERELVAVITYSGGNTYYADSVKGRFTISRDIAKNTVYLQMNSLKPEDSAVYYCAADYLVVAYGYRYLRHYYWGQGTQVTVSS", "polyreactivity (PSR sort gate)": "high polyreactivity"},
      {"sequence": "QVQLVESGGGLVQAGGSLRLSCAASGSIFRPYAMGWYRQAPGKERELVATITWRGGSTTYADSVKGRFTISRDNAKNTVYLQMNSLKPEDTAVYYCAADASWELFAWAHYDYWGQGTQVTVSS", "polyreactivity (PSR sort gate)": "low polyreactivity"},
      {"sequence": "QVQLVESGGGLVQAGGSLRLSCAASGSIFRPYAMGWYRQAPGTERELVAAITWSGGRTYYADSVKGRFTISRDTAKNTVYLQMNSLKPDDTAVYYCAADDSEGFDYWGQGTQVTVSS", "polyreactivity (PSR sort gate)": "high polyreactivity"},
      {"sequence": "QVQLVESGGGLVQAGGSLRLSCAASGSIFRPYVMGWYRQAPGKERELVAAISSRGGDTYYADSVKGRFTISRDNAKNTVYLQMNSLKPEDTAVYYCAAVEFRDSTFVVVSSPTSKSDYWGQGTQVTVSS", "polyreactivity (PSR sort gate)": "low polyreactivity"},
      {"sequence": "QVQLVESGGGLVQAGGSLRLSCAASGSIFRRKAMGWYRQAPGKERELVAAIRRGGSTNYADSVKGRFTISRDNAKNTVYLQMNSLKPEDTAVYYCAARGGSSGFYYWGQGTQVTVSS", "polyreactivity (PSR sort gate)": "high polyreactivity"},
      {"sequence": "QVQLVESGGGLVQAGGSLRLSCAASGSIFRRNAMGWYRQAPGKERELVAAINSRGGSTYYADSVKGRFTISRDNAKNTVYLQMNSLKPEDTAVYYCATARFLRYDRYDDYWGQGTQVTVSS", "polyreactivity (PSR sort gate)": "low polyreactivity"},
      {"sequence": "QVQLVESGGGLVQAGGSLRLSCAASGSIFRRNAMGWYRQAPGKERELVAAISYSGGSTYYADSVKGRFTISRDNAKNTVYLQMNSLKPEDTAVYYCAADLYYGFGGYYYWGQGTQVTVSS", "polyreactivity (PSR sort gate)": "high polyreactivity"},
      {"sequence": "QVQLVESGGGLVQAGGSLRLSCAASGSIFRRNAMGWYRQAPGKERELVAGISGGGSTYYADSVKGRFTISRDNAKNTVYLQMNSLKPEDTAVYFCATDKHFRWAGFDYWGQGTQVTVSS", "polyreactivity (PSR sort gate)": "low polyreactivity"},
      {"sequence": "QVQLVESGGGLVQAGGSLRLSCAASGSIFRRNTMGWSRQATGKERELVAAITYRGGSTYYADSVKGRFTISRDNAKNTDYLQMNSLKPEESAVYYCARYLWYYRVSKSDSWGQGTQVTVSS", "polyreactivity (PSR sort gate)": "high polyreactivity"}
    ]}
  ]
}
